According to patent US20250313625A1 (ELPISCIENCE SUZHOU BIOPHARMA, published 2025):
Read-outs that look alike come from different tables or passages of the source.

Columns and labels:
[1] = target: T1, human LAG3, full length, stably expressed on cells (human, UniProt P18627 23-525); assay: competitive FACS format III: His-FGL1 binding to 293F-human LAG3 cells
T1 construct: whole, on cells; also called CHOK1-human LAG3
T1 sequence (looked up): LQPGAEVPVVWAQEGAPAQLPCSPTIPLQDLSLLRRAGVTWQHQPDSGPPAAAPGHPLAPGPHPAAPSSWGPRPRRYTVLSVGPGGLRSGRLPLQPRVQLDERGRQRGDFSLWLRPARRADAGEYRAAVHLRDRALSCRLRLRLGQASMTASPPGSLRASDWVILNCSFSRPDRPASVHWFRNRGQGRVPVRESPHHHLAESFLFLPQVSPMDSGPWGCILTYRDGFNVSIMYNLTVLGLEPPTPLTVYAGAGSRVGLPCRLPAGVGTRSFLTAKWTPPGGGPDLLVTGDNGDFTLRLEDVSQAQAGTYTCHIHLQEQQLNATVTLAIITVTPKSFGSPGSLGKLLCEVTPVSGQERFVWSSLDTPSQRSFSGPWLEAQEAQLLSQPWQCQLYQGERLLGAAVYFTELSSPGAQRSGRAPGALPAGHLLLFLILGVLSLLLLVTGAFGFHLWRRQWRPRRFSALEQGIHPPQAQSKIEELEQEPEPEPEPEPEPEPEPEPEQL
Protocol: (§1) After washing, HRP labeled anti-His 2nd antibody (Sigma) was added and incubated at 37° C. for 1 hour. Then, 100 μl/well of TMB solution (Biotechnology) was added. After incubation for 15 minutes at room temperature, the reaction was stopped by the addition of 50 μl of 1N HCl. OD 450 nm was read. […] After washing, HRP labeled anti-SA 2nd antibody (Sigma) was added and incubated at 37° C. for 1 hour. Then, 100 μl/well of TMB solution (Biotechnology) was added. After incubation for 15 minutes at room temperature, the reaction was stopped by the addition of 50 μl of 1N HCl. OD 450 nm was read. […] The competition assay of format III is a competitive FACS assay. […] After washing, dye labeled anti-His 2nd antibody (Sigma) was added and incubated at 37° C. for 1 hour. Fluorescence intensity was detected.

[2] = target: T2, human LAG3 (form used in Octet, Biacore and HDX-MS not given) (human, UniProt P18627 23-450, limits assumed); assay: SPR (Biacore), 1:1 fit
T2 sequence (looked up): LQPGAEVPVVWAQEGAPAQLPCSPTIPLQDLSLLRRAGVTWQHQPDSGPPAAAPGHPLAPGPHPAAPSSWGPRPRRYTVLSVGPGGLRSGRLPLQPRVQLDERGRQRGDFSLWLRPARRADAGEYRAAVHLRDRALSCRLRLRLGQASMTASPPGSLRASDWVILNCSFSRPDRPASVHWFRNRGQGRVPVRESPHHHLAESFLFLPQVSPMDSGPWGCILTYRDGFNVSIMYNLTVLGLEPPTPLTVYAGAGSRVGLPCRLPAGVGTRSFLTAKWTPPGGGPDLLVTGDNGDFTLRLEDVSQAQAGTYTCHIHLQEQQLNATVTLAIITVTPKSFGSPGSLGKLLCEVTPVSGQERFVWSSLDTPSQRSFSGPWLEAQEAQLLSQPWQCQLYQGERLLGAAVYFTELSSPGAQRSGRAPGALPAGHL
Protocol: The association and dissociation curves were fit with 1:1 binding model, and the Ka/Kd/KD values for each antibody were calculated.

[3] = target: T2, human LAG3 (form used in Octet, Biacore …); assay: BLI (Octet), 1:1 fit
Protocol: The purified chimeric antibodies were characterized for binding affinity against human LAG3 using Bio-Layer Interferometry technology (Octet system). The association and dissociation curves were fit with 1:1 binding model, and the Ka/Kd/KD values for each antibody were calculated.

[4] = target: T2, human LAG3 (form used in Octet, Biacore …); assay: BLI (Octet)
[5] = target: T1, human LAG3, full length, stably …; assay: FACS on 293F cells stably expressing human LAG3
Protocol: Briefly the antibodies were incubated with 2×10⁵ target cells at 4° C. for 1 hour. After washing, fluorescence labeled anti-mouse IgG 2nd antibody (Life Technologies) was added and incubated at 4° C. for 1 hour. Geometric median fluorescence intensity (MFI) was detected and EC₅₀ was calculated using GraphPad Prism9.0.
MFI was detected and EC₅₀ was calculated using GraphPad Prism9.0.

[6] = target: T3, human LAG3 ECD recombinant protein (plate coated, tag not stated) (human, UniProt P18627 23-450); assay: competitive ELISA format I: His-FGL1 binding to coated LAG3 ECD
T3 construct: extracellular domain
T3 sequence (looked up): T2 sequence (looked up)

[7] = target: T4, mFc tagged human LAG3 ECD recombinant protein (human, UniProt P18627 23-450); assay: competitive FACS: mFc-LAG3 ECD binding to Raji cells (MHC II)
T4 construct: extracellular domain; purchased from Biointron; not shown: mouse IgG Fc (mFc) tag
T4 sequence (looked up): T2 sequence (looked up)
Protocol: (§2) Activity of the purified chimeric antibodies to block LAG3 and MHC II interaction was determined by competitive FACS assay. […] After washing, dye labeled anti-mouse Fc 2nd antibody (Sigma) was added and incubated at 37° C. for 1 hour. Fluorescence intensity was detected.

[8] = target: T5, hFc tagged human LAG3 ECD recombinant protein (human, UniProt P18627 23-450); assay: competitive ELISA format II: biotin hFc-LAG3 ECD binding to coated His-FGL1
T5 construct: range 23-450; also called biotin labelled hFc tagged human LAG3 ECD; not shown: human IgG Fc tag
T5 sequence (looked up): T2 sequence (looked up)
Protocol: as §1

[9] = target: T5, hFc tagged human LAG3 ECD recombinant …; assay: competitive ELISA format II: biotin labeled hFc tagged LAG3 ECD binding to plate coated His tagged human FGL1; 023c run beside 027c and 047c
Protocol: as §1

[10] = target: T4, mFc tagged human LAG3 ECD recombinant …; assay: competitive FACS: mFc-LAG3 ECD binding to Raji cells (MHC II); remark: listed apart in the source
Protocol: as §2

B1: 023c (antibody, human IgG4, V domains shown)
VH: QIQLVQSGPVLKKPGETVKISCKASGYTFTESPMNWVKQAPGRGFKWMGMIYTDTGEPTYAEEFKGRFAFSLETSASTAYLQINNLKSEDTATYFCVSDYGSILYWYFDVWGTGTTVTVSS
VL: DIVMTQSHKFMSTSVGDRVSITCKASQDVSTAVAWYQQTPGQSPKLLIYSASYRYTGVPDRFTGSGSGTDFTFTISSVQAEDLAVYYCQQHYNSPPTFGAGTKLELK
notes: human IgG4 S228P / kappa chimeric antibody; also called chimeric antibody 023; ES005-023c; not shown: human kappa light chain constant region (pcDNA3.4-hIgGk vector)
Blocking ratio at 200 nM (%) [1]: 29%
Kd [2]: 0.0775 nM
koff [2]: 0.000441 s⁻¹
kon [2]: 5.68e+06 M⁻¹ s⁻¹
Kd [3]: 0.648 nM
koff [3]: 0.000233 s⁻¹
kon [3]: 359000 M⁻¹ s⁻¹
Kd [4]: 0.456 nM
koff [4]: 0.000161 s⁻¹
kon [4]: 352000 M⁻¹ s⁻¹
EC50 [5]: 1.3 nM
TOP MFI [5]: 387
Blocking ratio at 66.7 nM (%) [6]: 52.9%
IC50 [7]: 6.2 nM
TOP blocking (%) [7]: 99.2%
IC50 [8]: 1.5 nM
TOP blocking (%) [8]: 82.8%
IC50 (read off the curve) [9]: ~0.3 µg/mL
IC50 [10]: 3.7 nM
TOP blocking (%) [10]: 94.6%
